Data: US20250376507A1, “NOVEL TUMOR ANTIGEN-TARGETING ANTICANCER AGENT” (INDUSTRY FOUNDATION OF CHONNAM NATIONAL UNIVERSITY, priority 2022, published 2025)

Tests used:
[1] = target: T1, recombinant calreticulin protein (rCRT) (Homo sapiens, UniProt P27797); assay: Binding affinity of recombinant proteins for CRT by ELISA; conditions: for Kd: ELISA, read-out: dissociation constant (Kd) for CRT; for affinity for CRT relative to single CRT3/CRT4 monobody: compared with monobodies of Zhang et al. 2021
T1 construct: purchased Abcam
T1 sequence (P27797 18-417): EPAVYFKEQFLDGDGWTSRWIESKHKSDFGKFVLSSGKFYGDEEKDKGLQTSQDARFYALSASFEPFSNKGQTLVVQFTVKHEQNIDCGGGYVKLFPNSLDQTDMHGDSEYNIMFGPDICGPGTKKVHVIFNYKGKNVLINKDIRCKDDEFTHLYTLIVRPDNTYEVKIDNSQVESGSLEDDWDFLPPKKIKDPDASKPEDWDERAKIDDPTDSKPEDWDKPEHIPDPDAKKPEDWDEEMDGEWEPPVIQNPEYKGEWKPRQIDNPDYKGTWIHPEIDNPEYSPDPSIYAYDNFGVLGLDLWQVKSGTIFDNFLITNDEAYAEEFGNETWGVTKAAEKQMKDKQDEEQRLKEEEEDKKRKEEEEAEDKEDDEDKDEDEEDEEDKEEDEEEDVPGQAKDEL
Method: The affinity of the recombinant protein for CRT was measured by enzyme-linked immunosorbent analysis (ELISA) (J. D. Beatty, et al., Journal of immunological methods 100(1-2), 173-179, 1987). In brief, 100 μL of PASylated CRT-targeted L-ASNases coated onto 96-well microplates (0-10 μM/well) overnight at 4° C. Unbound proteins were removed by aspiration from the wells and 100 μL of 10 μM rCRT proteins were added to each well and incubated for 2 h at room temperature. After rCRTs were removed, rabbit anti-CRT antibodies (diluted to 1:500) were added to each well and incubated for 2 h at room temperature. The antibodies were removed by aspiration, and the wells were washed five times with T-PBS. Then, biotin-conjugated anti-rabbit secondary antibodies (diluted to 1:1000) were added and incubated for 1 h. After washing with T-PBS, 100 μL of avidin-HRP (diluted to 1:250) was added to each well and incubated for 30 minutes at room temperature. After aspiration and washing five times, 100 μL of 1×3,3′,5,5′-tetramethylbenzidine (TMB) buffer (Thermo Fisher Scientific, USA) was added to each well to form a […] reaction product. After 15 minutes, 50 μL of 0.5 M H2SO4 solution was added to each well to stop the chromogenic reaction. The amount of colorimetric product was evaluated as the optical density value at 450 nm (OD450) by a SpectraMax M2 microtiter plate reader (Molecular Devices, USA).

[2] = In vivo pharmacokinetic analysis; parameters: species or system BALB/c mice; conditions: 10 IU intravenous, mouse serum
Method: Six-week-old female BALB/c mice (Orient Company, Korea) were randomly assigned to different treatment groups (n=3) and intravenously injected with 10 IU of PASylated recombinant protein. Then, blood samples were taken from the eyes at the specified time (0-52 h) and left at 4° C. for 40 min. After centrifugation at 12,000 rpm for 20 min, the serum fraction was obtained and stored at −80° C. before further analysis. PASylated recombinant protein in serum was assessed using the ELISA method described above. The amount of serum recombinant protein was converted to enzyme activity.

B1: CRT3LP: PASylated L-ASNase fused with CRT-targeting CRT3 monobody at N-terminus and PAS200 tag plus His6 tag at C-terminus (protein)
chain: MASVSDVPRDLEVVAATPTSLLISWKLGFFKRYYRITYGETGGNSPVQEFTVPGSKSTATISGLKPGVDYTITVYAVTGQPMYGQPMYPISINYRTSGGGGSGGGGSEFLPNITILATGGTIAGGGDSATKSNYTAGKVGVENLVNAVPQLKDIANVKGEQVVNIGSQDMNDDVWLTLAKKINTDCDKTDGFVITHGTDTMEETAYFLDLTVKCDKPVVMVGAMRPSTSMSADGPFNLYNAVVTAADKASANRGVLVVMNDTVLDGRDVTKTNTTDVATFKSVNYGPLGYIHNGKIDYQRTPARKHTSDTPFDVSKLNELPKVGIVYNYANASDLPAKALVDAGYDGIVSAGVGNGNLYKTVFDTLATAAKNGTAVVRSSRVPTGATTQDVEVDDAKYGFVASGTLNPQKARVLLQLALTQTKDPQQIQQIFNQYGSSGGGGSGGGGSASPAAPAPASPAAPAPSAPAASPAAPAPASPAAPAPSAPAASPAAPAPASPAAPAPSAPAASPAAPAPASPAAPAPSAPAASPAAPAPASPAAPAPSAPAASPAAPAPASPAAPAPSAPAASPAAPAPASPAAPAPSAPAASPAAPAPASPAAPAPSAPAASPAAPAPASPAAPAPSAPAASPAAPAPASPAAPAPSAPAAGSHHHHHH
Kd [1]: 2.07 ± 0.173 nM
affinity for CRT relative to single CRT3/CRT4 monobody [1]: four times higher
half-life [2]: 9.34 ± 0.91 h

B2: CRT4LP: PASylated L-ASNase fused with CRT-targeting CRT4 monobody at N-terminus and PAS200 tag plus His6 tag at C-terminus (protein)
chain: MASVSDVPRDLEVVAATPTSLLISWGQPMYGQPMYYYRITYGETGGNSPVQEFTVPGSKSTATISGLKPGVDYTITVYAVTKLGFFKRPISINYRTSGGGGSGGGGSEFLPNITILATGGTIAGGGDSATKSNYTAGKVGVENLVNAVPQLKDIANVKGEQVVNIGSQDMNDDVWLTLAKKINTDCDKTDGFVITHGTDTMEETAYFLDLTVKCDKPVVMVGAMRPSTSMSADGPFNLYNAVVTAADKASANRGVLVVMNDTVLDGRDVTKTNTTDVATFKSVNYGPLGYIHNGKIDYQRTPARKHTSDTPFDVSKLNELPKVGIVYNYANASDLPAKALVDAGYDGIVSAGVGNGNLYKTVFDTLATAAKNGTAVVRSSRVPTGATTQDVEVDDAKYGFVASGTLNPQKARVLLQLALTQTKDPQQIQQIFNQYGSSGGGGSGGGGSASPAAPAPASPAAPAPSAPAASPAAPAPASPAAPAPSAPAASPAAPAPASPAAPAPSAPAASPAAPAPASPAAPAPSAPAASPAAPAPASPAAPAPSAPAASPAAPAPASPAAPAPSAPAASPAAPAPASPAAPAPSAPAASPAAPAPASPAAPAPSAPAASPAAPAPASPAAPAPSAPAASPAAPAPASPAAPAPSAPAAGSHHHHHH
Kd [1]: 2.3 ± 0.166 nM
affinity for CRT relative to single CRT3/CRT4 monobody [1]: four times higher
